Results from IntAct's records for PubMed 22960633.

Columns and labels:
[1] = target: arl3_mouse Arl3 (UniProt Q9WUL7)
[2] = target: gnat1_human GNAT1 (UniProt P11488)
Sequence of gnat1_human GNAT1 (P11488 whole entry): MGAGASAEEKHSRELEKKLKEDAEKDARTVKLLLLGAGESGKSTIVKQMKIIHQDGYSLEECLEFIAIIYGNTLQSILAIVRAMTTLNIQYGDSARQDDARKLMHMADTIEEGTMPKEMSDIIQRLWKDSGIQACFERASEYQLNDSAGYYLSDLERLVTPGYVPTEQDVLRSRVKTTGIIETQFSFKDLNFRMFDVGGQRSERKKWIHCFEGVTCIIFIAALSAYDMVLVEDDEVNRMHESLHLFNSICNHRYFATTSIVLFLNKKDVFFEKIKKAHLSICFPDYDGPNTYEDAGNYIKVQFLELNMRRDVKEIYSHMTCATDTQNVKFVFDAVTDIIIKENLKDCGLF

Sequence of arl3_mouse Arl3 (Q9WUL7 whole entry): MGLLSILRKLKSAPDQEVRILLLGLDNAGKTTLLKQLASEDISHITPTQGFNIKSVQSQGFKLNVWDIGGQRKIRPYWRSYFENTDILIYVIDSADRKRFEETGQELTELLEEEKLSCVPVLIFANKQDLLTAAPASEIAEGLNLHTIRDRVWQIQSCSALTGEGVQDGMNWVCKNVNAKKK

Substance: Protein unc-119 homolog A (Homo sapiens) (from UniProt Q13432) Y194A
- effect of a mutation on the interaction [1]: decreasing interaction
- effect of a mutation on the interaction [2]: decreasing interaction
